Test results published in publication PMC9598763, “WDR73 Depletion Destabilizes PIP4K2C Activity and Impairs Focal Adhesion Formation in Galloway–Mowat Syndrome” (Biology, 2022).

Columns and labels:
[1] = target: T1, PIP4K2A on the HuProt human proteome microarray (human, UniProt P48426 1-406); test: peptide or protein array; Cy3-tagged His-WDR73 incubated on the HuProt v4.0 20K Human Proteome Microarray (purified human proteins as N-terminal GST fusions) overnight at 4 °C, washed, scanned; candidates by Z-score > 3; conditions: both partners purified
T1 construct: PIP4K2A, human; spotted on the array as N-terminal GST fusion; source: bought: HuProt v4.0 20K Human Proteome Microarray (CDI Laboratories), purified human proteins; not shown: GST, N-terminal, kept
T1 sequence (looked up): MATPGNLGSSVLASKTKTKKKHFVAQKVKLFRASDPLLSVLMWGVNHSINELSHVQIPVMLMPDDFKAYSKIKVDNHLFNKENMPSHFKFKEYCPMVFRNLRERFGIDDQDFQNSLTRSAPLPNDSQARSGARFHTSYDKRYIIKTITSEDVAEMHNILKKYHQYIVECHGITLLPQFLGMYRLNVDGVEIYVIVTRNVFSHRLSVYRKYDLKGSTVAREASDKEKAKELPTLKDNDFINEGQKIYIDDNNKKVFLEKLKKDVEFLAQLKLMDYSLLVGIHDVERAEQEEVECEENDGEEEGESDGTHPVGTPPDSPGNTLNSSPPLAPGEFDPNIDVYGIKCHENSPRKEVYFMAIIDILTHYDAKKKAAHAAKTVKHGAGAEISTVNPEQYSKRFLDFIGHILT

[2] = target: T2, PIP4K2C on the HuProt human proteome microarray (human, UniProt Q8TBX8 1-421); test: as above; conditions: both partners purified
T2 construct: PIP4K2C, phospholipid kinase, human; spotted on the array as N-terminal GST fusion; source: bought: HuProt v4.0 20K Human Proteome Microarray (CDI Laboratories), purified human proteins; not shown: GST, N-terminal, kept
T2 sequence (looked up): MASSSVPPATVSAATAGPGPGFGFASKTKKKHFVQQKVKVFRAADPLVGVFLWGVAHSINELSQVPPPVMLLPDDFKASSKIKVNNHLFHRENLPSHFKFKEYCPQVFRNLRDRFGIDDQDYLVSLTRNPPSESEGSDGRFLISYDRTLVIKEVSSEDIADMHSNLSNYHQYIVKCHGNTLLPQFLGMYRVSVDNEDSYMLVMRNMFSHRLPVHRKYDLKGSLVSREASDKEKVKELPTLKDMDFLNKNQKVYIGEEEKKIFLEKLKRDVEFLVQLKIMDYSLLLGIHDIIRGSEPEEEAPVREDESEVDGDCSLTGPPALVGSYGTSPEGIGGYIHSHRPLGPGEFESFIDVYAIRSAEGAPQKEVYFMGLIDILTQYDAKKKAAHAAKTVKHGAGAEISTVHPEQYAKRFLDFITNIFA

B1: Cy3-tagged His-WDR73 (natural protein, human, UniProt Q6P4I2 1-378, looked up)
chain: MDPGDDWLVESLRLYQDFYAFDLSGATRVLEWIDDKGVFVAGYESLKKNEILHLKLPLRLSVKENKGLFPERDFKVRHGGFSDRSIFDLKHVPHTRLLVTSGLPGCYLQVWQVAEDSDVIKAVSTIAVHEKEESLWPRVAVFSTLAPGVLHGARLRSLQVVDLESRKTTYTSDVSDSEELSSLQVLDADTFAFCCASGRLGLVDTRQKWAPLENRSPGPGSGGERWCAEVGSWGQGPGPSIASLGSDGRLCLLDPRDLCHPVSSVQCPVSVPSPDPELLRVTWAPGLKNCLAISGFDGTVQVYDATSWDGTRSQDGTRSQVEPLFTHRGHIFLDGNGMDPAPLVTTHTWHPCRPRTLLSATNDASLHVWDWVDLCAPR
modifications: labeled with Cy3 (CyDye Protein Labelling CY3 MONO 5-PACK, GE)
notes: WDR73 (WD40-repeat-containing protein), human; Probe of the HuProt microarray; also called recombinant His-WDR73 fusion protein; purified human WDR73 protein; source: recombinant, purified by MerryBio Co., Ltd
binding result [1]: binds
binding result [2]: binds
